Test results from publication PMC11097083 (Molecular & Cellular Proteomics : MCP, 2024).

Tests used:
[1] = target: galectin-4 C-terminal carbohydrate recognition domain (Gal-4C) (human); experiment: AUC
[2] = target: galectin-4 C-terminal carbohydrate recognition domain (Gal-4C) (human); experiment: cross-linking
cross-linking = target: the molecule itself; experiment: cross-linking

Molecule | stoichiometry N [1] | stoichiometry N [2] | stoichiometry N (cross-linking)
galectin-4 C-terminal carbohydrate recognition domain (Gal-4C) (domain or fragment) | 2 | 2 | 
galectin-4 (Gal-4), full-length (natural protein, human, UniProt P56470 1-323, looked up) MAYVPAPGYQPTYNPTLPYYQPIPGGLNVGMSVYIQGVASEHMKRFFVNFVVGQDPGSDVAFHFNPRFDGWDKVVFNTLQGGKWGSEERKRSMPFKKGAAFELVFIVLAEHYKVVVNGNPFYEYGHRLPLQMVTHLQVDGDLQLQSINFIGGQPLRPQGPPMMPPYPGPGHCHQQLNSLPTMEGPPTFNPPVPYFGRLQGGLTARRTIIIKGYVPPTGKSFAINFKVGSSGDIALHINPRMGNGTVVRNSLLNGSWGSEEKKITHNPFGPGQFFDLSIRCGLDRFKVYANGQHLFDFAHRLSAFQRVDTLEIQGDVTLSYVQI |  |  | 2
Gal-4NM (R67H), N-terminal domain mutant of full-length Gal-4 (natural protein, human, UniProt P56470 1-323, looked up) MAYVPAPGYQPTYNPTLPYYQPIPGGLNVGMSVYIQGVASEHMKRFFVNFVVGQDPGSDVAFHFNPHFDGWDKVVFNTLQGGKWGSEERKRSMPFKKGAAFELVFIVLAEHYKVVVNGNPFYEYGHRLPLQMVTHLQVDGDLQLQSINFIGGQPLRPQGPPMMPPYPGPGHCHQQLNSLPTMEGPPTFNPPVPYFGRLQGGLTARRTIIIKGYVPPTGKSFAINFKVGSSGDIALHINPRMGNGTVVRNSLLNGSWGSEEKKITHNPFGPGQFFDLSIRCGLDRFKVYANGQHLFDFAHRLSAFQRVDTLEIQGDVTLSYVQI |  |  | 2
Gal-4CM (R240H), C-terminal domain mutant of full-length Gal-4 (natural protein, human, UniProt P56470 1-323, looked up) MAYVPAPGYQPTYNPTLPYYQPIPGGLNVGMSVYIQGVASEHMKRFFVNFVVGQDPGSDVAFHFNPRFDGWDKVVFNTLQGGKWGSEERKRSMPFKKGAAFELVFIVLAEHYKVVVNGNPFYEYGHRLPLQMVTHLQVDGDLQLQSINFIGGQPLRPQGPPMMPPYPGPGHCHQQLNSLPTMEGPPTFNPPVPYFGRLQGGLTARRTIIIKGYVPPTGKSFAINFKVGSSGDIALHINPHMGNGTVVRNSLLNGSWGSEEKKITHNPFGPGQFFDLSIRCGLDRFKVYANGQHLFDFAHRLSAFQRVDTLEIQGDVTLSYVQI |  |  | 2
